# Reference: the DeepSol protein solubility set
# Assay: soluble on expression in E. coli; label from the status in PepcDB or PDB records
row,Sequence,soluble on expression in E. coli
1,MATYNGQGFIHDQLDSIRNQTLRPDYVLMRDDGSTDDTVKVVEDYIKEHRLDGWSITSNDKNLGWRLNFRQLLIDVLAYEVDYVFFSDQDDTWYHHKNKMQVDIMEERQDINLLSADIDIKKLSEEATIPNNFKFNGEETISKYPLDFSYHNYRQGWTFCLRKSFVDQVMTFYSDNLILSHDNLFAGVSGVIGSGYNLNRSVGEHKRHAENASGNILNMSSSYERHLQELYFVLSYYIILVPFLEKSSSSQLREAKAYLDFNQQRYKNAQNKDFVAILKQMMTKKRFYDSFSNRIRDLVFLLKDIKRS,not soluble
2,MSTENTLSVADLARENVRNLVPYQSARRLGGNGDVWLNANEFPTAVEFQLTQQTLNRYPECQPKAVIENYAQYAGVKPEQVLVSRGADEGIELVIRAFCEPGKDAILYCPPTYGMYSVSAETIGVERRTVPALENWQLDLQGISDNLDGTKVVFVCSPNNPTGQLINPQDLRTLLELTRGKAIVVADEAYIEFCPQATLTGWLVEYPHLVILRTLSKAFALAGLRCGFTLANEEVINLLLKVIAPYPLSTPVADIAAQALCPQGINAMRDRVAQTVQERQYLVNALQQTACVEHVFDSETNYILARFTASSSVFKSLWDQGIILRDQNKQPSLSGCLRITVGTRQENQRVIDALRAEPV,not soluble
3,PVNDEVEAVKNMHLIGQSQVAFREWNQKWVDLSLNSFADIENNLFEAEGYNHSFRFLKASHQIDQIESQITLIEEDIAAIRNALADLEKQESKNSGRVLHALDLFEELQHRVAENSEQYGQALDEIEKQLENIQSEFSQFVTLNSSGDPVEAAVILDNTENHILALSHIVDRVPALVTTLSTELPDQLQDLEAGYRKLIDANYHFVETDIEARFHLLYEAFKKNQENIRQLELDNAEYENGQAQEEINALYDIFTREIAAQKVVENLLATLPTYLQHMKENNTLLGEDIARLNKTYLLPETAASHVRRIQTELESFEAAIVEVTSNQEEPTQAYSVLEENLEDLQTQLKDIEDEQISVSERLTQIEKDDINARQKANVYVNRLHTIKRYMEKRNLPGIPQTFLKLFFTASNNTEDLMVELEQKMINIESVTRVLEIATNDMEALETETYNIVQYATLTEQLLQYSNRYRSFDERIQEAFNEALDIFEKEFDYHASFDKISQALEVAEPGVTNRFVTSYEKTRETI,not soluble
4,MFTHLDENQQPRMVDISQKVAGDRRAVAQCIVQLPKAIKDYLTGQEIFLKKGPVIQTAIIAGTMAVKKTADLIPFCHTLPIHGCKFDINIVYQKRDYLEIFLQCAVNTNYKTGVEMEALCGVSVAALTIYDMCKSISSEIIIKNTKLIEKTGGKADVSQTPLYGLVLTGGKSRRMGKDKALINYQGQPHGQYIYDLLAKYCEQVFLSARPSQWQGTPLENLPTLVDRGESVGPMSGILTALQSYPGVNWLIIACDLAYINSTMVEKLIAQARQDLVATCYENADQGFPEALCGFYTPLALQLFTKAQNIGLHCPVKILQMADCQLIKPDNLFDIANINSPEDYGQINLEHHHHHH,not soluble
5,MGSDKIHHHHHHMRVLAIRHVEIEDLGMMEDIFREKNWSFDYLDTPKGEKLERPLEEYSLVVLLGGYMGAYEEEKYPFLKYEFQLIEEILKKEIPFLGICLGSQMLAKVLGASVYRGKNGEEIGWYFVEKVSDNKFFREFPDRLRVFQWHGDTFDLPRRATRVFTSEKYENQGFVYGKAVGLQFHIEVGARTMKRWIEAYKDELEKKKIDPRLLLETAEREEKVLKGLLRSLLERMVES,not soluble
6,MGSDKIHHHHHHMQSRMHPRYYLSLEIFEREQKKIFRKAWLFAGLKTLLSEHNAFITRRIAGIPIVIQNFHGELRAFENVCLHRNALLQTEAVGKRPLVCAYHAWRYDAEGRVDHIPECDAVYRFSAEEKQGLKLRRFALHAVGNVLFINLDTDPLPFEEQFTPAFIDLLESSSNTYDTEVMVTTWHGKFNWKLAYENLRDANHPRFVHPKSLAKTVKFTPTVDEALFRESGLQLTDTSPSALRREMRRFSHAGADAPIPDLQHFGWHELVERWGDQDSYYNWLAFPNLHIASANGGFSFTLEHHIPIAPDRTDLEIYWFTARKKQAYAFSHQVLLAQMHGSKLVVGEDVEIMEQVQAALHADAPLPNQGAYESSNRLVERWYTTLMDGDHDI,not soluble
7,MAIDNIKAYVHLSDADIEEIGRRLDQIKAEVTQSLGARDVAYIKRLIRTQRSLEAAGRFALLFAGNKKCWWLGTGLLSTAKILENLEIGHNVLHGQWDWMNDPEIHSTTWEWDIVCPSSQWMHSHNFVHHTYTNVLGMDNDVGYGILRVTRDRKWTPLHAFQPAVNTVLAAMFQWAVGYYDVELGRYLTKRADWNDTKDKFWETTNKAGRQLARDYVFYPALARKAFPQAVKANAVANLVRSVWAYSVIFCGHFPDEAETFTKEQFKNEDHNQWYLRQMLGSANFYGGKLLTIMSGNLNYQIEHHLFPDMPSNRLAEVGEKVRALCDEYDLPYNVDSFPAQLFKVQKTLLKLTLPNKYLVASPDNAPEVRSNRAFSQNPELEHHHHHH,soluble
8,MGSDKIHHHHHHMSSILRLDRLRQFIGELATLLDSRPDESTLLAQAHPLLAELVHQDDWLPEDCARPDPQRYQQYLLHVDSRQRFSVVSFVWGPGQITPVHDHRVWGLIGMLRGAEYSQPYAFDAGGRPHPSGARRRLEPGEVEALSPRIGDVHQVSNAFSDRTSISIHVYGANIGAVRRAVFSAEGEEKPFISGYSNSRLPNIWDLSKENPA,not soluble
9,MAHHHHHHMMRQNLTSDSLITDTLRKAGVPCDVVGIVETVAGACRAIAAGLRNDGVTAAKSKNNFGDDVLSVDVMADKIISEALNSCQHVASYVSEESPSLASTAHSGKATYSVSYDPLDGSSIITSNFTVGSIFAVWPGNTPIGLTVRDMAASVVAVYGPRVVLFVGQEELGVAEFFCGADGEWKLAKRVWAGVCTPRTATVTAAGRGVKLKATVFSPGNLRAVRHLPWYKQLITMYMQEGATLRYTGGMVPDVCQIIVKGDGIYMTPASPQHKMKLRLLFEAAPMAFLIHCAGGRSTTGLTNMMNVRVVSMEQTTPIALGCARDVERYERMCRGCSKL,soluble
10,GSHMVPEPDLPHDLRHLNTEPMEIFRNSVKIEEIMPNGDPLLAGQNTVDEVYVSRPS,soluble
11,MLSGREMSMSHINYNHLYYFWHVYKEGSVVGAAEALYLTPQTITGQIRALEERLQGKLFKRKGRGLEPSELGELVYRYADKMFTLSQEMLDIVNYRKESNLLFDVGVADALSKRLVSSVLDAAVVEDEQIHLRCFESTHEMLLEQLSQHKLDMIISDCPIDSTQQEGLFSMKIGECGVSFWCTNPLPEKPFPACLEERRLLIPGRRSMLGRKLLNWFNSQGLNVEILGEFDDAALMKAFGATHNAIFVAPSLYANDFYNDDSVVEIGRVENVMEEYHAIFAERMIQHPAVQRICNTDYSALFTPASK,not soluble
12,MGSDKIHHHHHHVEKLVILHTNDLHSHFENWPKIRRFMLGTRAAEQAEGASVLAFDDGDAMDRSAPLTEATQGQINVQLLNEIGYDAATIGNNEGVGNPHDVLEHLYDHANFPVALANLFEVDGSRPTWAKPFVRTQTRAGTRIAIVGFTAPFFLTYRPNGWQVKTVADVFPDILKQLSGTYDVLIVLSHLGIEADRHLAKQYPEIDVVIGGHTHHLLADGELHGTTLLTAAEKYGHYVGKVTLTLDDQHQIITRQAETFKTELMQAAAADPREIQGYESKGIALLKQHQVARLPKQLSIKYDGPSPLLDLGLEALADGAQVDAAILNAGLFLMPLGPGVVTQADLLTCLPHPMHLLKVTLSGKELWRLIMEMEKNRMFLRHFHMIGMSFRGKIFGDIGYRGISVNREKRVVLWHGKPLVPEQQYTFVTVDNFLFIPFFPTIEIMGSNELLFPKLLRNVVGEYLAQKYPL,not soluble
13,SLITVRIGGNEYPLDEVLEDPGRYARHLERAKTIQGFAECGCAEGRPRPKLVIRRHRDIFLLARWPEQAFRHAEGCPFHRKTQTTPGAADSLDAFRMRDGRHDIRLDASLSVSTHTPAKTVQRTPKGQFTKPQRRSAGLLALLEFAWEQAGLNVWPGTGARSWNGCWSQLTAELDDCRINGKDADGLLHVMQRWDPARKSEILAEFEAWQARLSPTAAGNPRGILIGEIESHAATQYGGKVVLRQSTQRFFMSSGLYERLQASFGTALAGIGRAEQRCVAVLLVEKSRSNYLTVVDIGAMLANRQFLPCDSSHEVAMADHLVALRRAFRKPLRHIGRAEVHPDFVLTDVQPETVIEVLGMAGNPAYDARTASKRQHYQTAGVPFLEWDAVATSISSVRVPPAGTRAADAR,soluble
